According to the supplement of paper PMC9170038:

Tested on: MS2 coat protein
Assay: apparent KD of MS2 coat protein; designed switch direction (-1 OFF switch, 1 ON switch): 1; higher = weaker reporter binding
Outline: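 Stalled E. coli RNA polymerase transcribed designed RNA switches on Illumina chips, which were then titrated with SNAP-549-labelled MS2 coat protein, doubling from 0.7 or 1.5 nM to 3 µM. Steps lasted from 0.8–1.5 h at the lowest concentration to 10–20 min at the highest. The apparent KD is each design's median over clusters of curve-fitted normalised fluorescence.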

[1] = Eterna round: R95, input ligand: FMN 200 uM
[2] = Eterna round: R95, input ligand: microRNA oligo, concentration not stated
[3] = Eterna round: R95, input ligand: none
[4] = input ligand: microRNA oligo, concentration not stated

| Sequence | apparent KD of MS2 coat protein [1] | apparent KD of MS2 coat protein [2] | apparent KD of MS2 coat protein [3] | apparent KD of MS2 coat protein (input ligand: FMN 200 uM) | apparent KD of MS2 coat protein [4] | apparent KD of MS2 coat protein (input ligand: none) |
| --- | --- | --- | --- | --- | --- | --- |
| AGUCCAGCCUAAGCUGGACAAAAGCAUGUACAUGAGGAUCACCCAUGUUCAUGUACAAGCUUUUUGCUCGUCUUAAU [Mat - hsa-mir-208a - Mod of JL - 60] (puzzle: Sensor for hsa-mir-208a) | 608 nM | 18.1 nM | 697 nM |  |  |  |
| AGUCCAGCCUGAGCUGGACAAAAGCAUGUACAUGAGGAUCACCCAUGUCAUGUACAAGUUUUUUGCUCGUUUUAAUA [Zipper 49 - 18] (puzzle: Sensor for hsa-mir-208a) | 48.9 nM | 12.2 nM | 52 nM |  |  |  |
| AGUCCAGCCUGAGCUGGACAAAAGCAUGUACAUGAGGAUCACCCAUGUCAUGUAUAAGCUUUUUGCUCGUCUUAAUA [Zipper 49 - 11] (puzzle: Sensor for hsa-mir-208a) | 24 nM | 11 nM | 21.3 nM |  |  |  |
| AGUCCAGCCUGAGCUGGACAAAAGCAUGUACAUGAGGAUCACCCAUGUCAUGUAUAAGCUUUUUGCUCGUUUUAAUA [Zipper 49 - 16] (puzzle: Sensor for hsa-mir-208a) | 19.9 nM | 10.7 nM | 19 nM |  |  |  |
| AGUCCAGCCUGAGCUGGACAAAAGCAUGUACAUGAGGAUCACCCAUGUUCAUGUACAAGCUUUUUGCUCGUCUUACA [salish99_208a_r3_076] (puzzle: Sensor for hsa-mir-208a) | 467 nM | 14.4 nM | 483 nM |  |  |  |
| AGUCCAGCCUGAGCUGGACAAAAGCAUGUACAUGAGGAUCACCCAUGUUCAUGUACAAGCUUUUUGCUCGUCUUGCC [salish99_208a_r3_107x] (Eterna round: R96, puzzle: Sensor for hsa-mir-208a) |  |  |  | 774 nM | 15.5 nM | 623 nM |
| AGUCCAGCCUGAGCUGGACAAAAGCAUGUACAUGAGGAUCACCCAUGUUCAUGUACAAGCUUUUUGCUCGUCUUGCC [salish99_208a_r3_107x] (puzzle: Sensor for hsa-mir-208a) | 634 nM | 15.9 nM | 1130 nM |  |  |  |
| AGUCCAGCCUGAGCUGGACAAAUGCAAGUACAUGAGGAUCACCCAUGUUCAUGUACAAGCUUUUUGCUCGUCUUAAA [JL zipper 59] (Eterna round: R96, puzzle: Sensor for hsa-mir-208a) |  |  |  | 853 nM | 21.3 nM | 931 nM |
| AGUCCAGCCUGAGCUGGACAAUAGCAUGUACAUGAGGAUCACCCAUGUCAUGUACAAGCUUUUUGCUCGUCUUAAAA [JL zipper 48] (Eterna round: R96, puzzle: Sensor for hsa-mir-208a) |  |  |  | 163 nM | 12.4 nM | 159 nM |
| AGUCCAGCGAAAGCUGGACAAAAGCAUGUACAUGAGGAUCACCCAUGUUCAUGUACAAGCUUUUUGCUCGUUUUAAA [JL mod - D95 - 15] (puzzle: Sensor for hsa-mir-208a) | 590 nM | 13.5 nM | 643 nM |  |  |  |
| AUAAAACAUGAGGAUCACCCAUGUCAACAAAGUCGAGGAUAUGGGCAAAGAAAAUAAUAACCAGAAGGCGAAUAAU [salish99_ss1_r3_054] (puzzle: Same State 1) | 42.6 nM | 389 nM | 445 nM |  |  |  |
| AUAAAACAUGAGGAUCACCCAUGUCAACAAAGUCGAGGAUAUGGGCAAAUAAAAUAAGAACCAGAAGGCGAAUAAU [Teenbexe] (Eterna round: R96, puzzle: Same State 1) |  |  |  | 42.1 nM | 207 nM | 273 nM |
| AUAAAACAUGAGGAUCACCCAUGUCAACAAAGUCGAGGAUAUGGGCAAAUAAAAUAAGAACCAGAAGGCGAAUAAU [salish99_SS1_r3_001] (puzzle: Same State 1) |  | 233 nM |  |  |  |  |
| AUAAAACAUGAGGAUCACCCAUGUCAACAAAGUCGAGGAUAUGGGCAAAUAAAAUAAGAACCAGAAGGCGAAUUAU [salish99_ss1_r3_036] (Eterna round: R96, puzzle: Same State 1) |  |  |  | 36.8 nM | 185 nM | 247 nM |
| AUAAAACAUGAGGAUCACCCAUGUCAACAAAGUCGAGGAUAUGGGCAAAUAAAAUAAGAACCAGAAGGCGAAUUAU [salish99_ss1_r3_036] (puzzle: Same State 1) | 31.6 nM | 423 nM | 1140 nM |  |  |  |
| AUAAAACAUGAGGAUCACCCAUGUCAACAAAGUCGAGGAUAUGGGCAAAUAAAAUAAGAACUAGAAGGCGAAUAAU [salish99_ss1_r3_031] (puzzle: Same State 1) | 374 nM | 1770 nM | 139 nM |  |  |  |
| AUAAAACAUGAGGAUCACCCAUGUCAACAAAGUCGAGGAUAUGGGCAAAUAAAAUAAUAACCAGAAGGCGAAUAAU [salish99_ss1_r3_018] (puzzle: Same State 1) | 63.9 nM | 232 nM | 546 nM |  |  |  |
| AUAAAACAUGAGGAUCACCCAUGUCAACAAUGUCGAGGAUAUGGGCAAAUAAAAUAAGAACCAGAAGGCGAAUAAU [salish99_ss1_r3_039] (puzzle: Same State 1) | 43.2 nM | 248 nM | 507 nM |  |  |  |
| AUAAAACAUGAGGAUCACCCAUGUCUACAAAGUCGAGGAUAUGGGCAAAUAAUAUAAGAACCAGAAGGCGAAUAAU [SS1 Teenbexe 1] (puzzle: Same State 1) | 54.2 nM | 565 nM | 14400 nM |  |  |  |
| AUAAGGCAAGCUUUUUUCUCGUAGUGUAAACAUGAGGAUCACCCAUGUGCCCACCCUGGAUCUUUGGAUCCCAGAAC [Sobeedbeon] (puzzle: Sensor for hsa-mir-208a) | 23 nM | 15.3 nM | 22.4 nM |  |  |  |
| AUAAGUUCGAUGCUCGUCUUUCCGUACAAACAUGAGGAUCACCCAUGUGAUCGGGAAGUAGCCCGAUCAGUAUGGCC [Leceen] (puzzle: Sensor for hsa-mir-208a) | 30.6 nM | 16.3 nM | 27.5 nM |  |  |  |
